Test results published in patent publication US20160153985A1.

Legend:
[1] = biological target: pure human iC3b (Complement Technology, A115) (human) (UniProt P01024); assay: sandwich ELISA, capture A209 (Example 5), goat anti-C3-HRP; TABLE 6 well F4, 20% vitreous
[2] = biological target: pure human iC3b (Complement Technology, A115) (human) (UniProt P01024); assay: sandwich ELISA, capture A209 (Example 5), goat anti-C3-HRP; TABLE 6 well G7, 10% vitreous
[3] = biological target: pure human iC3b (Complement Technology, A115) (human) (UniProt P01024); assay: sandwich ELISA, capture A209 (Example 5), goat anti-C3-HRP; TABLE 6 well A4, blocker
[4] = biological target: pure human iC3b (Complement Technology, A115) (human) (UniProt P01024); assay: sandwich ELISA, capture A209 (Example 5), goat anti-C3-HRP; TABLE 6 well D8, 30% vitreous
[5] = biological target: pure human iC3b (Complement Technology, A115) (human) (UniProt P01024); assay: sandwich ELISA, capture A209 (Example 5), goat anti-C3-HRP; TABLE 6 well B8, blocker
[6] = biological target: pure human iC3b (Complement Technology, A115) (human) (UniProt P01024); assay: sandwich ELISA of Example 5, iC3b concentration labeled 0.0125 in 20% human vitreous, duplicate 2
[7] = biological target: pure human iC3b (Complement Technology, A115) (human) (UniProt P01024); assay: sandwich ELISA, capture A209 (Example 5), goat anti-C3-HRP; TABLE 6 well G8, 10% vitreous
[8] = biological target: pure human iC3b (Complement Technology, A115) (human) (UniProt P01024); assay: sandwich ELISA, capture A209 (Example 5), goat anti-C3-HRP; TABLE 7, iC3b in blocker
[9] = biological target: pure human iC3b (Complement Technology, A115) (human) (UniProt P01024); assay: sandwich ELISA, capture A209 (Example 5), goat anti-C3-HRP; TABLE 6 well A2, blocker
[10] = biological target: pure human iC3b (Complement Technology, A115) (human) (UniProt P01024); assay: sandwich ELISA, capture A209 (Example 5), goat anti-C3-HRP; TABLE 6 well H7, 10% vitreous
[11] = biological target: pure human iC3b (Complement Technology, A115) (human) (UniProt P01024); assay: sandwich ELISA, capture A209 (Example 5), goat anti-C3-HRP; TABLE 6 well B2, blocker
[12] = biological target: pure human iC3b (Complement Technology, A115) (human) (UniProt P01024); assay: sandwich ELISA, capture A209 (Example 5), goat anti-C3-HRP; TABLE 6 well C9, 30% vitreous
[13] = biological target: pure human iC3b (Complement Technology, A115) (human) (UniProt P01024); assay: sandwich ELISA, capture A209 (Example 5), goat anti-C3-HRP; TABLE 6 well H8, 10% vitreous
[14] = biological target: pure human iC3b (Complement Technology, A115) (human) (UniProt P01024); assay: sandwich ELISA, capture A209 (Example 5), goat anti-C3-HRP; TABLE 6 well B7, blocker
[15] = biological target: pure human iC3b (Complement Technology, A115) (human) (UniProt P01024); assay: sandwich ELISA, capture A209 (Example 5), goat anti-C3-HRP; TABLE 6 well C4, 30% vitreous
[16] = biological target: pure human iC3b (Complement Technology, A115) (human) (UniProt P01024); assay: sandwich ELISA, capture A209 (Example 5), goat anti-C3-HRP; TABLE 6 well G3, 10% vitreous
[17] = biological target: pure human iC3b (Complement Technology, A115) (human) (UniProt P01024); assay: sandwich ELISA, capture A209 (Example 5), goat anti-C3-HRP; TABLE 6 well G2, 10% vitreous
[18] = biological target: pure human iC3b (Complement Technology, A115) (human) (UniProt P01024); assay: sandwich ELISA of Example 5, iC3b concentration labeled 0.0125 in 20% human vitreous, duplicate 1
[19] = biological target: pure human iC3b (Complement Technology, A115) (human) (UniProt P01024); assay: sandwich ELISA, capture A209 (Example 5), goat anti-C3-HRP; TABLE 6 well F8, 20% vitreous
[20] = biological target: pure human iC3b (Complement Technology, A115) (human) (UniProt P01024); assay: sandwich ELISA, capture A209 (Example 5), goat anti-C3-HRP; TABLE 6 well F3, 20% vitreous
[21] = biological target: pure human iC3b (Complement Technology, A115) (human) (UniProt P01024); assay: sandwich ELISA, capture A209 (Example 5), goat anti-C3-HRP; TABLE 6 well D3, 30% vitreous
[22] = biological target: pure human iC3b (Complement Technology, A115) (human) (UniProt P01024); assay: sandwich ELISA, capture A209 (Example 5), goat anti-C3-HRP; TABLE 6 well E7, 20% vitreous
[23] = biological target: pure human iC3b (Complement Technology, A115) (human) (UniProt P01024); assay: sandwich ELISA, capture A209 (Example 5), goat anti-C3-HRP; TABLE 6 well H3, 10% vitreous
[24] = biological target: pure human iC3b (Complement Technology, A115) (human) (UniProt P01024); assay: sandwich ELISA, capture A209 (Example 5), goat anti-C3-HRP; TABLE 6 well E6, 20% vitreous
[25] = biological target: pure human iC3b (Complement Technology, A115) (human) (UniProt P01024); assay: sandwich ELISA, capture A209 (Example 5), goat anti-C3-HRP; TABLE 6 well E3, 20% vitreous

Sequence of UniProt P01024 (P01024 23-667 limits assumed, chain 1 of 3): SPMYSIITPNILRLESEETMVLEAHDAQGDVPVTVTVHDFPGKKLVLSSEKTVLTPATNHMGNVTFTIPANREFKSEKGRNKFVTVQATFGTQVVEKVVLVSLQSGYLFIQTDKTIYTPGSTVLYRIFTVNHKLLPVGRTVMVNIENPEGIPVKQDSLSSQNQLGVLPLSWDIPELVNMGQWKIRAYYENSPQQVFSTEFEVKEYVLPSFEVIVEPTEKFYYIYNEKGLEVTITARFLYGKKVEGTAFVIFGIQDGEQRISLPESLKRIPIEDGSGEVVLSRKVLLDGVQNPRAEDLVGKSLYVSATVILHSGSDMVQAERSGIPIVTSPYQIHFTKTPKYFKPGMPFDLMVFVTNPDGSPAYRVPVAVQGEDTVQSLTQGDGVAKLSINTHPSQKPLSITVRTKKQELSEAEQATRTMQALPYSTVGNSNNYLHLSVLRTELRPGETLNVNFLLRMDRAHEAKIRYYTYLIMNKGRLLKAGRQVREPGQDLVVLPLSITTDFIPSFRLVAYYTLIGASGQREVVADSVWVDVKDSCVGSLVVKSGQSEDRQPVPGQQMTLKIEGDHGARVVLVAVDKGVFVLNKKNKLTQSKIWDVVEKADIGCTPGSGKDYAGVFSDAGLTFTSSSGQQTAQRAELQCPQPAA
Sequence of UniProt P01024 (P01024 749-1303 limits assumed, chain 2 of 3): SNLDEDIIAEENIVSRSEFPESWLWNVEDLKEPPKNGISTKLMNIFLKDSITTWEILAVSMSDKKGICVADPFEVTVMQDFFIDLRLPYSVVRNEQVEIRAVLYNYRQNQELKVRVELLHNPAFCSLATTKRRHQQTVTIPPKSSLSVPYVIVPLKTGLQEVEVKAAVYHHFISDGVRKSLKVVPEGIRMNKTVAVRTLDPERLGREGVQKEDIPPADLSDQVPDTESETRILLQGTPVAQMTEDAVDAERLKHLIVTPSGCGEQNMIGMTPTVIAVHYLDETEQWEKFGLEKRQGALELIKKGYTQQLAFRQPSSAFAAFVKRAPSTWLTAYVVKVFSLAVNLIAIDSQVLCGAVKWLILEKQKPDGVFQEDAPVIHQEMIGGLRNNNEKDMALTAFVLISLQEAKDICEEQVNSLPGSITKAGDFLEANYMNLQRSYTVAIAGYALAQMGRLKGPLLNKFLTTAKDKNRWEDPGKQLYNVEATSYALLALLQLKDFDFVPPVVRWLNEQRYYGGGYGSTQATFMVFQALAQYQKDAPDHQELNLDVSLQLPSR
Sequence of UniProt P01024 (P01024 1321-1663 limits assumed, chain 3 of 3): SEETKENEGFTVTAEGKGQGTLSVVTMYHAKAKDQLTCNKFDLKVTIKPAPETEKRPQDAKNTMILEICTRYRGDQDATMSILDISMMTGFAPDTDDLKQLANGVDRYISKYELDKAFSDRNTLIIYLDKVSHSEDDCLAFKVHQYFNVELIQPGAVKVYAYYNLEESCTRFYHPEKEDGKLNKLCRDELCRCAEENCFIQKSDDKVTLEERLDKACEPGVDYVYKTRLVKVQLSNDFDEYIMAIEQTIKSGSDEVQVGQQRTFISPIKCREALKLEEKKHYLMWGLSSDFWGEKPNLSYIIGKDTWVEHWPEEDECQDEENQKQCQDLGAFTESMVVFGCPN

raw A450 at iC3b 0.25 ug/ml [1]: 0.435 OD
raw A450 at iC3b 0.031 ug/ml [2]: 0.248 OD
raw A450 at iC3b 0.25 ug/ml [3]: 0.169 OD
raw A450 at iC3b 0.016 ug/ml [4]: 0.355 OD
raw A450 at iC3b 0.016 ug/ml [5]: 0.038 OD
absorbance A450, raw [6]: 0.384 A450
raw A450 at iC3b 0.016 ug/ml [7]: 0.227 OD
A450 minus matrix average at iC3b 0.016 ug/ml [8]: 0.011 OD
A450 minus matrix average at iC3b 0.031 ug/ml [8]: 0.021 OD
A450 minus matrix average at iC3b 0.063 ug/ml [8]: 0.037 OD
A450 minus matrix average at iC3b 0.125 ug/ml [8]: 0.073 OD
A450 minus matrix average at iC3b 0.25 ug/ml [8]: 0.138 OD
A450 minus matrix average at iC3b 0.5 ug/ml [8]: 0.232 OD
A450 minus matrix average at iC3b 1 ug/ml [8]: 0.328 OD
raw A450 at iC3b 1 ug/ml [9]: 0.371 OD
raw A450 at iC3b 0.031 ug/ml [10]: 0.231 OD
raw A450 at iC3b 1 ug/ml [11]: 0.344 OD
raw A450 at iC3b 0.0078 ug/ml [12]: 0.368 OD
raw A450 at iC3b 0.016 ug/ml [13]: 0.237 OD
raw A450 at iC3b 0.031 ug/ml [14]: 0.048 OD
raw A450 at iC3b 0.25 ug/ml [15]: 0.391 OD
raw A450 at iC3b 0.5 ug/ml [16]: 0.385 OD
raw A450 at iC3b 1 ug/ml [17]: 0.508 OD
absorbance A450, raw [18]: 0.361 A450
raw A450 at iC3b 0.016 ug/ml [19]: 0.318 OD
raw A450 at iC3b 0.5 ug/ml [20]: 0.45 OD
raw A450 at iC3b 0.5 ug/ml [21]: 0.406 OD
raw A450 at iC3b 0.031 ug/ml [22]: 0.339 OD
raw A450 at iC3b 0.5 ug/ml [23]: 0.316 OD
raw A450 at iC3b 0.063 ug/ml [24]: 0.353 OD
raw A450 at iC3b 0.5 ug/ml [25]: 0.442 OD
Substance: mouse anti-iC3b antibody A209 (Quidel)
